Molecular target: Galdieria sulphuraria sarcosine dimethylglycine methyltransferase (Galdieria sulphuraria)
Assay: SEC

stoichiometry N: 2
Substance: Galdieria sulphuraria sarcosine dimethylglycine methyltransferase (enzyme)
